The values below come from the RNAGym collection of RNA variant scans (doi:10.7554/elife.80360).

B1: Hairpin Ribozyme (parent)
chain: GUCCUCUUUCACGUGCGCGUGAAAGAGAGAAGUGAACCAGAGAAACACACGUUGUGGUAUAUUACCUGGUA

This data set covers variants of B1. The data set can be described thus: self-cleavage, relative activity (ratio to wild type); higher = more cleavage; co-transcriptional.
Regarding U7G G57C, the self-cleavage worked out at 0.206.
On to C6U A36G, for which the self-cleavage is 0.834.
For U7G A61U the value was 0.203; for U7G A26U, 0.384; for U7A A36U, 0.568.
C6U C66U: the self-cleavage stood at 0.309.
With U8A A43U, the self-cleavage was found to be 0.106.
On to C6U U60C, for which the self-cleavage amounted to 0.794.
As to U7A G27C, the self-cleavage came out at 0.197.
Then U7A G27U, with 0.251; and U7C U60A, with 0.737.
Then U7C U60G, with 0.621; and C6U U20G, with 0.637; and U7A A44C, with 0.177.
Then U7C A71G, with 1.13; and U7C A71C, with 1.35; and C6G G40C, with 0.0776.
Consider C6G G40A, for which the self-cleavage came to 0.207.
On to U7C C37G, for which the self-cleavage came to 0.273.
Then U7C C37A, with 0.37; and U8A A71G, with 0.699.
For C6G G15U, the self-cleavage amounted to 0.706.
As for U7G G54U, the self-cleavage amounted to 0.619.
With U7G G54A, the self-cleavage worked out at 0.642.
Then U7A U8C, with 0.559; and U7A A23U, with 0.791.
U8A A22G: the self-cleavage was determined as 0.644.
Regarding U7C A22C, the self-cleavage was 0.178.
Then U7C A22G, with 0.565; and U8A A35C, with 0.911; and U7G G25A, with 0.316.
For C6G G25U the value was 0.475; for U7G U52A, 0.734.
Then U7G U52C, with 0.961; and U7A G32U, with 0.149.
Regarding U7A G32A, the self-cleavage stood at 0.145.
Regarding U7G C12G, the self-cleavage was determined as 0.658.
For U7A C37A the value was 0.261; for U7A C37U, 0.403; for U7C G51A, 0.69.
For C6U A47U the value was 0.0966.
As to C6U A47G, the self-cleavage came to 0.107.
Take C6U A47C: the self-cleavage worked out at 0.283.
On to U7A U58A, for which the self-cleavage came to 0.58.
Then U7G U60G, with 0.484; and U7C U8G, with 0.484.
For C6G U33A the value was 0.155; for C6U G42U, 0.323.
Then U8A G29C, with 0.104; and U8A G29U, with 0.0651; and U7A G51C, with 0.972.
With U7C U52A, the self-cleavage is 0.82.
For U7C U62G the value was 0.179.
Then U7C G15A, with 0.753; and U7C A41U, with 0.98; and U7G A71U, with 0.746.
Turning to U7A G21C, the self-cleavage amounted to 0.664.
Turning to U7A G21U, the self-cleavage worked out at 0.683.
U7A U67G: the self-cleavage stood at 0.282.
Then U7A U67A, with 0.223; and U7A G34C, with 1.36; and U7A G34U, with 1.4.
Regarding U7C U33A, the self-cleavage is 0.068.
Consider U7A C50G, for which the self-cleavage is 0.269.
For U7A C50A the value was 0.175; for U7A U63G, 0.199; for U7A U63C, 0.102.
Turning to U7A A22C, the self-cleavage amounted to 0.649.
Turning to U7A A22G, the self-cleavage is 0.61.
Take C6U G15A: the self-cleavage worked out at 0.794.
Then C6U G15C, with 0.722; and C6U G56C, with 0.149.
Then U7G C66U, with 0.355; and U7A U70A, with 0.766.
Then U7A U70G, with 0.921; and U7A C66A, with 0.269.
In the case of U7A C66U, the self-cleavage amounted to 0.461.
Consider U7G A23U, for which the self-cleavage is 0.883.
Then U7A C65A, with 0.876; and U7A C65U, with 0.349; and C6U A22U, with 0.789.
For C6U A22C the value was 0.493; for U7G A22G, 0.908.
For U7G A22C the value was 0.515.
Consider U7C A61C, for which the self-cleavage amounted to 0.11.
For U7A A47C the value was 0.34; for U7A A47U, 0.0924; for U7A A47G, 0.0992.
For U7G G13C the value was 0.618; for C6U G29U, 0.12.
U8A G15A: the self-cleavage was determined as 0.826.
Consider C6U G40C, for which the self-cleavage was 0.14.
Take U8A A30C: the self-cleavage is 0.172.
For U8A A64G the value was 0.503; for C6U C37U, 0.6.
Then U7C G21A, with 0.618.
On to U7A A39U, for which the self-cleavage was 0.546.
Regarding U8A, the self-cleavage is 0.745.
In the case of C6U U7G, the self-cleavage turned out to be 0.449.
For U7A C18A the value was 1.12; for C6U G54C, 0.311; for C6G C65G, 0.23.
With C6U C65G, the self-cleavage was found to be 0.232.
For C6U A31G the value was 0.451; for U7A C12U, 0.797; for U7A C12A, 0.549.
Then U7G A64G, with 0.461; and U8A A24G, with 0.511.
For U8A G34C the value was 0.902; for U7G A24G, 0.697; for U7G A44U, 0.139.
As to U7G G19U, the self-cleavage is 0.414.
For U7C G27C the value was 0.172; for U7C G27A, 0.386; for U7A A43C, 0.186.
Consider C6G U60G, for which the self-cleavage worked out at 0.31.
C6G U60A: the self-cleavage worked out at 0.496.
U7G A31C: the self-cleavage came out at 0.11.
For U7G G29A the value was 0.22; for U7G G29C, 0.134.
With U8A G19U, the self-cleavage is 0.661.
Then U7G A28G, with 1.06; and U7G A28C, with 0.329.
As to U8A G32C, the self-cleavage is 0.111.
For U7C U14C the value was 0.925; for U7C U14G, 0.723; for U8A C38A, 0.15.
Turning to U8A C38G, the self-cleavage was determined as 0.102.
Then U7C A26U, with 0.176; and U7A A59U, with 0.182.
For C6U A30U the value was 0.152.
Regarding U8A A39U, the self-cleavage was found to be 0.334.
For U8A A39G the value was 0.279.
For U7G G42U the value was 0.299.
Then U8A G17A, with 0.742; and C6U G57C, with 0.135.
As for U7C U58G, the self-cleavage turned out to be 0.815.
For U7C G32U the value was 0.261; for U7G C50G, 0.143.
Then U7A U62A, with 0.177; and U7A A11C, with 0.636.
For U7C G25C the value was 0.251.
Take U8A A47C: the self-cleavage was 0.295.
On to U8A A47U, for which the self-cleavage was 0.16.
For U7G G51U the value was 0.844; for C6G G42A, 0.0986; for C6G G42C, 0.157.
As for C6U A45C, the self-cleavage turned out to be 0.0819.
Then U7C C46G, with 0.124; and U7C U9G, with 0.35.
For U7C U9C the value was 0.673.
For U7G G34A the value was 0.984; for U7G G34C, 1.39; for C6G G51U, 0.44.
On to C6U U9A, for which the self-cleavage was 0.517.
Regarding U8A C18A, the self-cleavage came out at 0.872.
For U7A A30G the value was 0.305; for U7C U63G, 0.161.
For U7C U63A, the self-cleavage was determined as 0.19.
On to C6U C46G, for which the self-cleavage stood at 0.204.
Take C6U C46A: the self-cleavage turned out to be 0.0705.
For C6U G21A the value was 0.572; for C6G G13U, 0.27; for C6G U67C, 0.151.
C6G U67G: the self-cleavage worked out at 0.146.
For U7A G19A the value was 0.845.
For U7G A30G, the self-cleavage amounted to 0.081.
